Laboratory results: the nanobody polyreactivity screen of Harvey et al. (2022)

Assay: yeast display, Sf9 membrane polyspecificity reagent, FACS + sequencing; frameworks hold sequencing errors
How it was run: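 In a synthetic yeast display library (Saccharomyces cerevisiae BJ5465), nanobody expression was induced with galactose for 36–48 hours. FACS gates were set low and high (top ~1%) using anti-HA fluorescence for expression and streptavidin fluorescence for binding of the Sf9 membrane reagent. Each polyreactivity label is drawn from the gate of origin.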

Sequence | polyreactivity (PSR sort gate)
QVQLVESGGGLVQAGGSLRLSCAASGITFTINAMGWYRQAPGKERELVAVIDVSGGSTDYADSVKGRFTISRDNAKNTVYLQMNSLKPEDTAVYYCAADEYDVYYYAYREYYWGQGTQVTVSS | low polyreactivity
QVQLVESGGGLVQAGGSLRLSCAASGITFTLYAMGWYRQAPGKERELVASISWSGGSTYYADSVKGRFTISRDIAKNTVYLQMNSLKPEDTAVYYCNAVYARKYYYSHGYDYWGQGTQVTVSS | high polyreactivity
QVQLVESGGGLVQAGGSLRLSCAASGITFTLYAMGWYRQAPGKERELVASISWSGGSTYYADSVKGRFTISRDNAKNTVYLQMNSLKPEDTAVYYCNAVYARKYYYSHGYDYWGQGTQVTVSS | high polyreactivity
QVQLVESGGGLVQAGGSLRLSCAASGITFTPYAMGWYRQAPGKERELVAAISWRGGSTYYADSVKGRFTISRDNAKNTVYLQMNSLKPEDTAVYYCAKDGRGYGRYSRYYTGDYWGQGTQVTVST | low polyreactivity
QVQLVESGGGLVQAGGSLRLSCAASGITFTRNAMGWYRQAPGKERELVAAISRRSGSTYYADSVKGRFTISRDNAKNTVYLQMNSLKPEDTAVYYCAATYSVHFVRYGYWGQGTQVTVSS | high polyreactivity
QVQLVESGGGLVQAGGSLRLSCAASGITFTRYTKGWYRQAPGKERELVAAIRGSGGSTYYADSVKGRFTISRDNAKNTVYLEMNSLKAEDTAVYFCAADKYLYGRLTRNFHYYYWGLGTQVTVSS | low polyreactivity
QVQLVESGGGLVQAGGSLRLSCAASGITFTSYAMGWYRQAPGKERELVAAISTRVGRTYYADSVKGRFTISRDNAKNTVYLQMNSLKPEDTAVYYCAADRISQGYSTYNYWGQGTQVTVSS | high polyreactivity
QVQLVESGGGLVQAGGSLRLSCAASGITFTSYVMGWYRQAPGKERELVAAIRWSGGRTYYADSVKGRFTISRDNAKNTDYLQMNTLKPAATAVYYCNRVTRSHVDYWGQGTQVTVSS | high polyreactivity
QVQLVESGGGLVQAGGSLRLSCAASGITFTVNAMGWYRQAPGKERELVAAISNDGSTYYADSVKGRFTISRDNAKNTVYLQMNSLKPEDTAVYYCAADTWDDFGPYGYDYWGQGTQVTVSS | low polyreactivity
QVQLVESGGGLVQAGGSLRLSCAASGITFTYYAMGWYRPAPGKERELVAAITDRGGRTYYADSVKWRFTISRDNAKKTVYLQMNRLNPDDTAVYFCNTVPTSNSRTSVYFPYYYWGQGTQVTVSS | high polyreactivity
QVQLVESGGGLVQAGGSLRLSCAASGITFVAYAMGWYRQAPGKERELVAAISGGGGSTYYADSVKGRFTISRDNAKNTVYLQMNSLKPEDTAVYYCAGVYTYPLGYYHYTYDYWGQGTQVTVSS | low polyreactivity
QVQLVESGGGLVQAGGSLRLSCAASGITFVDYDMGWYRQAPGKERELVAAISWSGGSTYYADSVKGRFTISRDNAKNTVYLQMNSLKPEDTAVYYFAAEVIWWVREYYYWGQGTQVTVSS | low polyreactivity
QVQLVESGGGLVQAGGSLRLSCAASGITFVGNDMGWYRQAPGKERELVATISSSGTRTYYADSVKGRFTISRDNAKNTVYLQMNSLKQEDTAVYYCAARWRSYITYWFDYWGQGTQVTVSS | low polyreactivity
QVQLVESGGGLVQAGGSLRLSCAASGITFVHYAMGWYIQAPGKERELVAAISEDGGSTYYADSVKGRFTISRDNAKNTVYLQMNSLKPEDTAVYYCNTYSGLWPYWRLYDYWGQGTQVTVSS | high polyreactivity
QVQLVESGGGLVQAGGSLRLSCAASGITFVLNVMGWNRQAPGKERELVAAISASGGRTYYADSVKGRFTISRDNAKHTVYLQMNSLKPEDTAVYYCNAVLPRYTFRSGVFEYDWGQGTQVTVSS | high polyreactivity
QVQLVESGGGLVQAGGSLRLSCAASGITFVNYAMGWYRQAPGKERELVAAISGDGGNTYYADSVKGRFTISRDNAKNTVYLQMNSLKPEDTAVYYCAATPYLYRLYGYWYRPYYYWGQGTQVTVSS | high polyreactivity
QVQLVESGGGLVQAGGSLRLSCAASGITFVQYAMGWYRQAPGKERELVAAIRRGGSTSYADSVKGRFTISRDNAKNTVYLQMNSLKPEDTAVYYCARRYVWPITPLDVEYWGQGTQVTVSS | low polyreactivity
